Results on 43 sequences are retold here after the supplement of paper PMC12764529.

± gives the half width of the 95% confidence interval. Some results are limits rather than exact numbers.

A short description of data set [1]: folding stability dG unfold (combined trypsin and chymotrypsin); higher = more stable. The method, boiled down: (§1)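 Unfolding free energy was derived, per protease or combined, against a sequence-predicted unfolded-state K50 and a shared folded-state K50, starting from K50 inferred by Bayesian fitting of sequencing counts. Digestion with trypsin and chymotrypsin was carried out on designed mini-proteins under 80 residues without cysteine in a PA-tagged cDNA display construct. Only designs with AlphaFold2 dimer inter-PAE above 15 were kept.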

Data set [2] can be described thus: folding stability dG unfold from chymotrypsin proteolysis; higher = more stable. In short, it runs like this: as §1

For the sequence “SAGGSSSVTEISISRSRQRPDASGRWVTEPVLPPGVYAPTTVVHENGVLTFNTVYDGKPVTETIPLSSAGGS [r16_500_JUSTAS]”, the “folding stability dG unfold” value in data set [1] is -0.0547 ± 0.12 kcal/mol; in data set [2] it was 0.47 ± 0.13 kcal/mol.
In the case of “SAGGSSVKVVKTEVTEDPATGLTTVTETFENGAKATFTIDPATGTVPGETEYPDKKVKYTGYDPLPPSAGGS [r8_363_JUSTAS]”, the “folding stability dG unfold” value is -0.111 ± 0.31 kcal/mol in data set [1] and 0.588 ± 0.15 kcal/mol in data set [2].
Take “SAGGSTVTFSSEEEIAKLKPVLKKGNPTTLYLNEVRERLLPNGEPVLVPRDVTRTITLVNGKLTESETSAGG [r13_835_JUSTAS]”: the “folding stability dG unfold” value is below -1 kcal/mol in data set [1] and -0.685 ± 0.18 kcal/mol in data set [2].
For the sequence “SAGGTATVEAALAALPADLPRGSLALHPETGLVEPLEPSPEDAVAYPVNPATGERYPLRVEADAVRLLSAGG [r13_803_JUSTAS]”, the “folding stability dG unfold” value is -0.517 ± 0.15 kcal/mol in data set [1] and 0.461 ± 0.079 kcal/mol in data set [2].
“SAGGTIKGLPVEEIKDEIRDLFPDHPMKVDIEPIDEDEGYVRVEIEPPRPNGKTQRQEHTIPIRPDDSAGGS [r16_564_TrROS]”: the “folding stability dG unfold” value in data set [1] was -0.64 ± 0.58 kcal/mol; in data set [2], -0.579 ± 0.14 kcal/mol.
On to “SAGGYPAEIEASNVKPEELKKAIEDAPWAKELDVEVEDSSPDGSVKAKFKANSKAEVKRFEKAVKDAFSAGG [r13_580_TrMRF]”, for which the entries for the “folding stability dG unfold” value in data set [1] and in data set [2] were below -1 kcal/mol and -0.448 ± 0.34 kcal/mol, respectively.
For the sequence “SAGKLVVPILLEFPPGATLEEAKEAVEEAVEKLKESFPNAPDIEIKLVDVKVFKTEDDRYLVLALIEVGSAG [r5_985_TrMRF]”, the “folding stability dG unfold” value in data set [1] is 4.55 ± 0.43 kcal/mol; in data set [2] it was 4.51 ± 0.23 kcal/mol.
Turning to “SAGKSKTITLEIYNKETNIIIKIEIEINGDEVTIKVYAFNKDGKLIAKAEIKFNKKTKKLEIKIEIKKLSAG [r5_747_TrROS_Hall]”, the entries for the “folding stability dG unfold” value in data set [1] and in data set [2] were above 6 kcal/mol and 5.07 ± 0.33 kcal/mol, respectively.
With “SAGLFDYLHKHNGLVRAALRRNGPPVVIPRLFRIEPDGDTYKLSVPDPDGVPQDWEVLDVEVFKPEDAISAG [r14_427_TrMRF]”, the “folding stability dG unfold” value is -0.0844 ± 0.18 kcal/mol in data set [1] and 0.275 ± 0.19 kcal/mol in data set [2].
Taken in the same sequence, the figures for “SAGMEVVEKIAKELGYENVKVESITPQVSPSGTTTLTITVKISKPGSTKTFTITASPEEIEEEIKKALSSAG [r5_549_JUSTAS]” were 4.77 ± 0.23 kcal/mol and 4.72 ± 0.14 kcal/mol.
For “SAGMKPGETRHIPIRPGMPPEEFIEEIEAEGPVKIWFPGRKREIDSPDDIEDNFRNFPEPMPIEVKVPSAGG [r19_95_TrROS]”, the results for the “folding stability dG unfold” value in data set [1] and in data set [2] were 0.157 ± 0.28 kcal/mol and 0.695 ± 0.12 kcal/mol, respectively.
Turning to “SAGMLVRIETLPPGAATEEVVPMTPEEAKEYLEAQGYTVSTDPANPTMTFSHPDATVTVTFEPVPADLRSAG [r5_248_JUSTAS]”, the “folding stability dG unfold” value in data set [1] was found to be 0.365 ± 0.15 kcal/mol; in data set [2], 0.79 ± 0.12 kcal/mol.
Consider “SAGMPLPVKLVSFEPGANTLTIDRPYTNGPVTLSPDGTLTITGTLRDENGKPLETFTETIPVNWPEGTRSAG [r5_475_JUSTAS]”, for which the “folding stability dG unfold” value was -0.568 ± 0.17 kcal/mol in data set [1] and -0.24 ± 0.14 kcal/mol in data set [2].
In the case of “SAGMSTTTTAEIKAAVEAAAGEGLNVAPPTVTATDGTPISDDTVIEPGAPVPVTVDVPIDPVPPPELRSAGG [r19_278_JUSTAS]”, the “folding stability dG unfold” value in data set [1] is -0.0815 ± 0.28 kcal/mol; in data set [2], 0.336 ± 0.09 kcal/mol.
On to “SAGMTFEEEFVEEVDGGEMVKTKTLYEYDPSTNSITVLEEEVEKIPLPEVAPAPAPPEAMEERGAPGALSAG [r5_393_JUSTAS]”, for which the “folding stability dG unfold” value in data set [1] was -0.115 ± 0.09 kcal/mol; in data set [2] it was 0.254 ± 0.093 kcal/mol.
For “SAGMTHVLPVPELSPEEVRALAEALPEGEELVLLVPGPELLAELRAAGFPVDPARFRLATPEERAELLASAG [r5_354_JUSTAS]”, in that order: -0.189 ± 0.12 kcal/mol and 0.857 ± 0.13 kcal/mol.
For the sequence “SAGNMTNEQLQERIKEAVREDGWPTYRIKMSGPDGKNMNFQVDFPEERRQKIQKELGWDITEVEPRRYSAGG [r19_50_TrROS]”, the “folding stability dG unfold” value in data set [1] is -0.578 ± 0.3 kcal/mol; in data set [2], -0.107 ± 0.38 kcal/mol.
“SAGSEVTLEITLTREVPSGKPVTLTETKTVPLAPSVPVEEVIKALKSPEWTAKVTLYTDGTPVTELTLDSAG [r5_278_JUSTAS]”: the “folding stability dG unfold” value in data set [1] stood at 0.176 ± 0.069 kcal/mol; in data set [2] it was 0.604 ± 0.064 kcal/mol.
For “SAGSVPQLIEDKLQEGSPNSSVEVKPVDTLGGTTVLEVKIERIDTSSGNGKLTSEDKIIEVPAGEELGSAGG [r19_8_JUSTAS]”, in that order: 0.0158 ± 0.086 kcal/mol and 0.467 ± 0.049 kcal/mol.
For “SAGTVTSSTTPLPDGSLLSTTTTTSPVSGTSVTTSTTTTTPVTPTTPPPPPRPVYPRYYDGVTEPALSLSAG [r5_169_JUSTAS]”, the “folding stability dG unfold” value was -0.639 ± 0.18 kcal/mol in data set [1] and -0.12 ± 0.068 kcal/mol in data set [2].
“SAKKHIPIPMDDPENLKKAIEEALENAENGKKVEIPIRSPDGPVWIEVDPKKKDIKIRNPGNGEERKIKSAG [r14_423_TrROS]”: the “folding stability dG unfold” value in data set [1] is -0.0974 ± 0.53 kcal/mol; in data set [2], 0.228 ± 0.084 kcal/mol.
“SAMIEVYRPPDRALVKLPSGKVEILDDPEAFEARVRAESDLPIRVTPLSPESPEFKALLEEIEKKLKGKSAG [r14_235_JUSTAS]”: the figures for the “folding stability dG unfold” value in data set [1] and in data set [2] were 0.0988 ± 0.31 kcal/mol and 0.192 ± 0.18 kcal/mol, respectively.
With “SAMLTLPVESTDPARVEAAIAEARALAAQGARVEVPVRTPEGPLRFLVDPATGRVVRTDPATGATEVLPSAG [r14_423_JUSTAS]”, the “folding stability dG unfold” value in data set [1] was -0.244 ± 0.13 kcal/mol; in data set [2], 0.161 ± 0.17 kcal/mol.
Take “SAMTISVSETPDTGSLTVPMTLEPDTVEEVVEEVAKEIAPEEAEVSIEVTEVVPHPDSVTVTAKITVRPSAG [r14_345_JUSTAS]”: the “folding stability dG unfold” value in data set [1] is -0.0666 ± 0.085 kcal/mol; in data set [2], 0.361 ± 0.041 kcal/mol.
On to “SAMTTTTTTTDPASGRTVVTTTTPLPDGSVVTTEVDLSNPVRTTTTHPLTDGTPAPTTTTTALPADATLSAG [r14_64_JUSTAS]”, for which the “folding stability dG unfold” value is -0.345 ± 0.12 kcal/mol in data set [1] and 0.0551 ± 0.046 kcal/mol in data set [2].
“SAMVPLEEAAKRVAEELGLEYTEITKIVPGTGELIVEFPGKKLTVTQDPATGSTTVEETFYDPETGVKKSAG [r14_270_JUSTAS]”: the entries for the “folding stability dG unfold” value in data set [1] and in data set [2] were below -1 kcal/mol and -1.35 ± 0.28 kcal/mol, respectively.
As for “SAPMTPAERARPRIKKLVNLLAEDGNFKVDIERDPGDPGVVVTIKLDPNSREKFAERLGIPRDELYDLISAG [r14_688_TrROS]”, the “folding stability dG unfold” value in data set [1] is -0.373 ± 0.41 kcal/mol; in data set [2], -0.0457 ± 0.23 kcal/mol.
For “SATKTINFDEFNDMMNQGDPPMLRHIIKEAREKDPDKEITIRMPKNPMFRDYIKEAFKEEGYPVKITPHSAG [r14_236_TrROS]”, the entries for the “folding stability dG unfold” value in data set [1] and in data set [2] were below -1 kcal/mol and -0.494 ± 0.36 kcal/mol, respectively.
For “SAVTFPVPVTVTVPDADGGPPAVTVPVAVPVDPDAVRDAAIERLRRELAEAGRPDVTEEDLARPEFLAARSA [r9_263_TrMRF]”, the “folding stability dG unfold” value in data set [1] is -0.335 ± 0.23 kcal/mol; in data set [2] it was 0.622 ± 0.16 kcal/mol.
As for “SDPLGTPVPLTYRVLLTFPGVSRPFLGPGGVVRSVSVNPTVLVPGPANSYPAVRELAEPLGLSVSVTPLASA [r9_1209_TrMRF]”, the “folding stability dG unfold” value in data set [1] was -0.871 ± 0.23 kcal/mol; in data set [2] it was -0.289 ± 0.21 kcal/mol.
For “SGMEEIKIEVLSTETDESGTTYTETKIVLPDGKVIEATMTTTTVPDAAGNPVAVETLTLKDKTYTRTIPLSA [r9_271_JUSTAS]”, in that order: 0.101 ± 0.17 kcal/mol and 0.448 ± 0.12 kcal/mol.
Taken in the same sequence, the figures for “SKPMPADELMEQHPNMIMIRTPNDKHIFINPEENEIFRFNPDEGRVYWIPGTLEEIEELVPDNGFEIWPFSA [r9_721_TrROS]” were 0.286 ± 0.22 kcal/mol and 0.536 ± 0.21 kcal/mol.
Regarding “SMEEKEEVLSVEVDPVGEVVVTRTLVKKSAVDPTNPNNPVPLSLEEIVEPVPLPPPVPLPVPGNPRFEAASA [r9_357_JUSTAS]”, the “folding stability dG unfold” value in data set [1] worked out at 0.154 ± 0.081 kcal/mol; in data set [2], 0.77 ± 0.072 kcal/mol.
As for “SMEPPVPKIKARLVEVREEGERPRALFEIEEIEDAPPEIEELFKRGAKIEVEIPPDYPLKEDEEIEVDPLSA [r9_557_TrMRF]”, the “folding stability dG unfold” value in data set [1] came out at 0.0252 ± 0.28 kcal/mol; in data set [2], 0.622 ± 0.15 kcal/mol.
Turning to “SMNVTEEVTVEELPSGEVLTETVVTEPSGVTTVTTTLASPPDRPVVETRTTTYPPDGSSTETSTVAPLPGSA [r9_1179_JUSTAS]”, the “folding stability dG unfold” value in data set [1] amounted to 0.00729 ± 0.23 kcal/mol; in data set [2], 0.507 ± 0.054 kcal/mol.
For “SMVIPSSLGFEPALERVRALLPPERRYVVTELDPATGETTTATYDPATGTVTTTATPSAAGPPYVVVEVVSA [r9_1059_JUSTAS]”, the “folding stability dG unfold” value was -0.251 ± 0.086 kcal/mol in data set [1] and 0.345 ± 0.064 kcal/mol in data set [2].
For “SPKPFEMSIQIPGITPQALEKAVELARKDGWVENEIEPDPENNNVQIDVEMRGTPEKMHRAQNAIQEAIKSA [r9_652_TrROS]”, in that order: -0.386 ± 0.21 kcal/mol and 0.197 ± 0.18 kcal/mol.
Regarding “SPPVLYEITITFTYSDGTTVTKTINATVPRSQIDALIQKIIEEPGNKPYTKVTFNIYDKSTGTWTTITIDSA [r9_97_JUSTAS]”, the figures for the “folding stability dG unfold” value in data set [1] and in data set [2] were 5.66 ± 0.23 kcal/mol and 5.76 ± 0.18 kcal/mol, respectively.
As for “SSMVVINFPDTKKATPETLRKEIEPVAAPGKPVLVTVYPPTGVVLKTATVEPDKVEEVDPSHPYIVEIVASA [r9_264_JUSTAS]”, the “folding stability dG unfold” value was -0.558 ± 0.16 kcal/mol in data set [1] and -0.377 ± 0.24 kcal/mol in data set [2].
For “SSTTTTTTDPSGYTYSTTVTTHPDSTTTTTGRVTVEKVGDRPVARTTTTTTTVSPGGATTTTTSTTTTLPSA [r9_69_JUSTAS]”, in that order: 0.0549 ± 0.082 kcal/mol and 0.589 ± 0.1 kcal/mol.
On to “SSVTLLVPVEVTLPTPEGKGPSVTRFVPVPVPEEELRERLIEELREELKKKGEPDVTEEELKDPEVLEELSA [r9_263_JUSTAS]”, for which the “folding stability dG unfold” value is -0.0887 ± 0.18 kcal/mol in data set [1] and 0.51 ± 0.046 kcal/mol in data set [2].
With “STITDVEIYKMPPGEEYPFPNGRKIPPGDYMIYNEDNGHYMSADQIRRILQEIEQELEKLPPPKKPENDKSA [r9_517_TrROS]”, the “folding stability dG unfold” value in data set [1] is -0.162 ± 0.43 kcal/mol; in data set [2] it was 0.251 ± 0.29 kcal/mol.
In the case of “VNPRTLTYDPVTNRIDAATPDGTPVTVTAGSSGYTATVTDPATGAPTVVPLTEAELAALEADPAFPLATSNS [r1_18_JUSTAS]”, the “folding stability dG unfold” value was -0.115 ± 0.056 kcal/mol in data set [1] and 0.653 ± 0.057 kcal/mol in data set [2].
